Experimental data published in patent publication US20060100138.

Legend:
[1] = molecular target: Synthetic human type I collagen
[2] = molecular target: T1, Synthetic human type III collagen
T1 chain: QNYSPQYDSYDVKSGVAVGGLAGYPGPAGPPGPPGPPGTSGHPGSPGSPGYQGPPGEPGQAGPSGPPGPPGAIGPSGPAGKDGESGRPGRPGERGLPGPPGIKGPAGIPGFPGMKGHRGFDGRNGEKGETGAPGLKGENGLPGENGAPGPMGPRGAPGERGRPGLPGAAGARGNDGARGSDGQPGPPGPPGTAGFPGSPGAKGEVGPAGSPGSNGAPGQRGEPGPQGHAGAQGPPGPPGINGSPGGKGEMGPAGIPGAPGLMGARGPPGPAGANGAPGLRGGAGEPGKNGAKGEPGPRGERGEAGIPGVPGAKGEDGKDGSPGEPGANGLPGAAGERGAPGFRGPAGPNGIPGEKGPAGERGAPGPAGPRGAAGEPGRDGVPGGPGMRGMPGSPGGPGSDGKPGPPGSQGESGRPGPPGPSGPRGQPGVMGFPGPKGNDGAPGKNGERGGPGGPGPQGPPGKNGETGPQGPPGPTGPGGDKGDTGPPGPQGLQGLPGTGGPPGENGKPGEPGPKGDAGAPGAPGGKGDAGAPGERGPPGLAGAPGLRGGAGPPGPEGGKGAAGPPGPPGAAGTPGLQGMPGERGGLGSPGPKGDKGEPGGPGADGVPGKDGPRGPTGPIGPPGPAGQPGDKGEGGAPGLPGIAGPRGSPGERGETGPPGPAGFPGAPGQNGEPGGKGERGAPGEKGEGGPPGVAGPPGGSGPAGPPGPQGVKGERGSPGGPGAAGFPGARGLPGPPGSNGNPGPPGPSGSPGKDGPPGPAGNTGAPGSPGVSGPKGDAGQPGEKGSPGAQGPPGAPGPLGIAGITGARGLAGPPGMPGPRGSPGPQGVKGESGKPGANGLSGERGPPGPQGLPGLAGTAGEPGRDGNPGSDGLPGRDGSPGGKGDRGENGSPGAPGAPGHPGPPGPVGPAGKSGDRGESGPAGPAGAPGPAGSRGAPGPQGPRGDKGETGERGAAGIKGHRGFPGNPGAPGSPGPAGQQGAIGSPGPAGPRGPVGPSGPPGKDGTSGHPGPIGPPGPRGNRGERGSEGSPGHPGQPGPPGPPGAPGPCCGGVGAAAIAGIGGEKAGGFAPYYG

Sequence of Synthetic human type I collagen (chain, as listed by the source, chain 1 of 2): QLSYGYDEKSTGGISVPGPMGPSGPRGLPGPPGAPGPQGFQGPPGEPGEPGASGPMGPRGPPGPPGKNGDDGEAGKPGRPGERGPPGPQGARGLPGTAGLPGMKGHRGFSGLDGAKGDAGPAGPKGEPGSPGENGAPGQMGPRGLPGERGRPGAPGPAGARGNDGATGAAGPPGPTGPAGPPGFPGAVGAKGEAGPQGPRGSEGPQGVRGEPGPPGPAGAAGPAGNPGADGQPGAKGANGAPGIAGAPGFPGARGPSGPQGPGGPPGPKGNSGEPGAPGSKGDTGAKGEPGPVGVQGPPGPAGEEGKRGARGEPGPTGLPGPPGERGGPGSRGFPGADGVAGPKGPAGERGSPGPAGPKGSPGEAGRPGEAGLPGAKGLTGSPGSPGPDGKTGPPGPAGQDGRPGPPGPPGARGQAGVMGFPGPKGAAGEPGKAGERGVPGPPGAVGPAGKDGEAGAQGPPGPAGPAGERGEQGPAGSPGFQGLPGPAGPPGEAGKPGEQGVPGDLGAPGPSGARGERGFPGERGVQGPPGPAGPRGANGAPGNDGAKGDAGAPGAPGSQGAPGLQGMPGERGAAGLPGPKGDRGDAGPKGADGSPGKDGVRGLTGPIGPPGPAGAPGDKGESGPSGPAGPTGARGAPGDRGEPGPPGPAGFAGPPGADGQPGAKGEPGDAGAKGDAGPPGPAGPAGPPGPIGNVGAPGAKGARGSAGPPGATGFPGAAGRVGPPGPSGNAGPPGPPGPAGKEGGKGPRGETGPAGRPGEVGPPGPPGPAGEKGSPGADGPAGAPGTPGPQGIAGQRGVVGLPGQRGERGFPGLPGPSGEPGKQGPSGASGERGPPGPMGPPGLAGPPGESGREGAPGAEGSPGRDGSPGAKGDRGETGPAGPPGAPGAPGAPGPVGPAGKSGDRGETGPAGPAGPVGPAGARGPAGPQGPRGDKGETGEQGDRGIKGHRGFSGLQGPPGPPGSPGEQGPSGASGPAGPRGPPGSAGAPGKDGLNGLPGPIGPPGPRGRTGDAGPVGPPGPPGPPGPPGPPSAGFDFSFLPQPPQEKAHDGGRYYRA
Sequence of Synthetic human type I collagen (chain, as listed by the source, chain 2 of 2): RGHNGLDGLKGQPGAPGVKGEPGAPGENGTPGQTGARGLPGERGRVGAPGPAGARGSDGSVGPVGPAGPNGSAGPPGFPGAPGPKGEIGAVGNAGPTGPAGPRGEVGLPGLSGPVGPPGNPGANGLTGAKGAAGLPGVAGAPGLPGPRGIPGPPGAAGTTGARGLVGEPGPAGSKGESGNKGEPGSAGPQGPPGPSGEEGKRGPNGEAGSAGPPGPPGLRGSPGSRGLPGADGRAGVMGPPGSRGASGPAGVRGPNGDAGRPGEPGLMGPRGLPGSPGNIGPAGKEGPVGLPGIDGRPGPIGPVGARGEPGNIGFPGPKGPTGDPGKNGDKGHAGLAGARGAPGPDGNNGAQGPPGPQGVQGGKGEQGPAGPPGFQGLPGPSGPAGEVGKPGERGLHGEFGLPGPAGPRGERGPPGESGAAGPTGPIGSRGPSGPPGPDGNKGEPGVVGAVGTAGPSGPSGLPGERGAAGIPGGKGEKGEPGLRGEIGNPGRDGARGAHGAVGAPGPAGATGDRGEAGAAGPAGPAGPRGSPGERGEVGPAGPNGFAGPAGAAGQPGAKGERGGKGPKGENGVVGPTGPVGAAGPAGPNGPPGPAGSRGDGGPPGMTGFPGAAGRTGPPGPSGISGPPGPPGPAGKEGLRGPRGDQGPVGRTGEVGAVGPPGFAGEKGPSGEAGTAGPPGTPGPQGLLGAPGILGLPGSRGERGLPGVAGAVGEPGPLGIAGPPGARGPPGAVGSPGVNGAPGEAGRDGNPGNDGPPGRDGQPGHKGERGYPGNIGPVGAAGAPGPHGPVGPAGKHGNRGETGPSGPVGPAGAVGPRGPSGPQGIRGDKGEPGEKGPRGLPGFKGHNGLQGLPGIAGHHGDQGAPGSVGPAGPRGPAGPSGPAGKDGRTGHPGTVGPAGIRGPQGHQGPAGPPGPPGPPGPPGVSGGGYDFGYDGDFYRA

B1: MMP-1 (collagenase 1, fibroblast collagenase) (protein)
chain: FVLTEGNPRWEQTHLTYRIENYTPDLPRADVDHAIEKAFQLWSNVTPLTFTKVSEGQADIMISFVRGDHRDNSPFDGPGGNLAHAFQPGPGIGGDAHFDEDERWTNNFREYNLHRVAAHELGHSLGLSHSTDIGALMYPSYTFSGDVQLAQDDIDGIQAIYGRSQNPVQPIGPQTPKACDSKLTFDAITTIRGEVMFFKDRFYMRTNPFYPEVELNFISVFWPQLPNGLEAAYEFADRDEVRFFKGNKYWAVQGQNVLHGYPKDIYSSFGFPRTVKHIDAALSEENTGKTYFFVANKYWRYDEYKRSMDPGYPKMIAHDFPGIGHKVDAVFMKDGFFYFFHGTRQYKFDPKTKRILTLQKANSWFNCRKN
cleavage of collagen (SDS-PAGE after 1, 2 and 7 days at 37 C) [1]: both synthetic human type I and type III collagen were cleaved by MMP-1 (FIG. 1A) and MMP-8 (FIG. 1B)
cleavage of collagen (SDS-PAGE after 1, 2 and 7 days at 37 C) [2]: both synthetic human type I and type III collagen were cleaved by MMP-1 (FIG. 1A) and MMP-8 (FIG. 1B)
extent of degradation of collagen (SDS-PAGE) [2]: Synthetic human type III collagen was degraded by MMP-1 to a greater extent than by MMP-8
